Target: microtubules prepared from bovine brain tubulin (taxol-stabilized)

| Protein | ATPase activity (malachite green) | maximal basal and microtubule-stimulated ATPase rates relative to p60/p80 | microtubule concentration at peak ATPase stimulation | microtubule severing (fluorescence microscopy assay) | rate of microtubule disassembly (DAPI fluorescence assay) | ATPase activity (malachite green), stimulation by microtubules | maximal microtubule-stimulated ATPase rate |
| --- | --- | --- | --- | --- | --- | --- | --- |
| baculovirus-expressed S. purpuratus katanin p60 subunit with N-terminal His(6) tag (protein) HHHHHHMSVDEICENTKMGREYALLGNYETSLVYYQGVLQQIQKLLTSVHEPQRKHQWQTIRQELSQEYEHVKNITKTLNGFKSEPAAPEPAPNHRAAPFSHHQHAAKPAAAEPARDPDVWPPPTPVDHRPSPPYQRAARKDPPRRSEPSKPANRAPGNDRGGRGPSDRRGDARSGGGGRGGARGSDKDKNRGGKSDKDKKAPSGEEGDEKKFDPAGYDKDLVENLERDIVQRNPNVHWADIAGLTEAKRLLEEAVVLPLWMPDYFKGIRRPWKGVLMVGPPGTGKTMLAKAVATECGTTFFNVSSASLTSKYHGESEKLVRLLFEMARFYAPSTIFIDEIDSICSKRGTGSEHEASRRVKSELLIQMDGVSGPSAGEESSKMVMVLAATNFPWDIDEALRRRLEKRIYIPLPEIDGREQLLRINLKEVPLADDIDLKSIAEKMDGYSGADITNVCRDASMMAMRRRIQGLRPEEIRHIPKEELNQPSTPADFLLALQKVSKSVGKEDLVKYMAWMEEFGSV | p60 alone displayed a microtubule-stimulated ATPase activity | only 2-fold lower than those of the p60/p80 heterodimer | peak at ˜2 µM tubulin | Both p60 and p60/p80 severed microtubules in this assay | p60 was half as active as p60/p80 |  |  |
| co-expressed recombinant p60/p80 katanin heterodimer (baculovirus, both subunits with N-terminal His(6) tag) (protein) chain 1: HHHHHHMSVDEICENTKMGREYALLGNYETSLVYYQGVLQQIQKLLTSVHEPQRKHQWQTIRQELSQEYEHVKNITKTLNGFKSEPAAPEPAPNHRAAPFSHHQHAAKPAAAEPARDPDVWPPPTPVDHRPSPPYQRAARKDPPRRSEPSKPANRAPGNDRGGRGPSDRRGDARSGGGGRGGARGSDKDKNRGGKSDKDKKAPSGEEGDEKKFDPAGYDKDLVENLERDIVQRNPNVHWADIAGLTEAKRLLEEAVVLPLWMPDYFKGIRRPWKGVLMVGPPGTGKTMLAKAVATECGTTFFNVSSASLTSKYHGESEKLVRLLFEMARFYAPSTIFIDEIDSICSKRGTGSEHEASRRVKSELLIQMDGVSGPSAGEESSKMVMVLAATNFPWDIDEALRRRLEKRIYIPLPEIDGREQLLRINLKEVPLADDIDLKSIAEKMDGYSGADITNVCRDASMMAMRRRIQGLRPEEIRHIPKEELNQPSTPADFLLALQKVSKSVGKEDLVKYMAWMEEFGSV chain 2: HHHHHHMATKRAWKLQELVAHSSNVNCLALGPMSGRVMVTGGEDKKVNLWAVGKQNCIISLSGHTSPVDSVKFNSSEELVVAGSQSGTMKIYDLEPAKIVRTLTGHRNSIRCMDFHPFGEFVASGSTDTNVKLWDVRRKGCIYTYKGHSDQVNMIKFSPDGKWLVTASEDTTIKLWDLTMGKLFQEFKNHTGGVTGIEFHPNEFLLASGSSDRTVQFWDLETFQLVSSTSPGASAVRSISFHPDGSYLFCSSQDMLHAFGWEPIRCFDTFSVGWGKVADTVIASTQLIGASFNATNVSVYVADLSRMSTTGIAQEPQSQPSKTPSGGAEEVPSKPLTASGRKNFVRERPHTTSSKQRQPDVKSEPERQSPTQDEGVKDDDATDIKDPDSYAKIFSPKTRVDHSPERNAQPFPAPLDVPGAQEPEPFKHPPKPAAAAAVAPVSRAPAPSASDWQPAQANPAPNRVPAATKPVPAQEVAPSRKPDPISTIIPSDRNKPANLDMDAFLPPAHAQQAPRVNAPASRKQSDSERIEGLRKGHDSMCQVLSSRHRNLDVVRAIWTAGDAKTSVESVVNMKDQAILVDILNIMLLKKSLWNLDMCVVVLPRLKELLSSKYENYVHTSCACLKLILKNFTSLFNQNIKCPPSGIDITREERYNKCSKCYSYLIATRGYVEEKQHVSGKLGSSFRELHLLLDQLE |  |  | peak at ˜2 µM tubulin | Both p60 and p60/p80 severed microtubules in this assay |  | this activity was stimulated ˜10-fold by microtubules | maximal microtubule-stimulated rate of 3 ATP/katanin/sec |
